Laboratory results taken from patent US20160376333A1.

Key:
[1] = molecular target: Epstein-Barr virus BHRF1 a.a. 1-161 with C-terminal avi-6his tag (Epstein-Barr virus)
[2] = molecular target: Epstein-Barr virus BHRF1 a.a. 1-161 with C-terminal avi-6his tag (Epstein-Barr virus); experiment: crystal structure PDB 2WH6 of Bim-BH3 bound to BHRF1; solvent-accessible surface buried in the complex
[3] = molecular target: Epstein-Barr virus BHRF1 a.a. 1-161 with C-terminal avi-6his tag (Epstein-Barr virus); remark: listed apart in the source

Bim-BH3 (peptide), sequence (O43521 141-166): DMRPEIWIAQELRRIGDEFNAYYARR

Bim-BH3 (peptide)
buried contact surface on Bim-BH3 [1]: 1100 Å2 | Total buried SASA [2]: 2000 Å2 | buried contact surface on BHRF1 [3]: 908 Å2
